Results on two molecules are retold here after PMC5449630 (Nucleic Acids Research, 2017).

For data set [1], the target named is T1, DNA ligase IV tandem BRCT domains (residues 654-911) (UniProt P49917 654-911).
T1 sequence (looked up): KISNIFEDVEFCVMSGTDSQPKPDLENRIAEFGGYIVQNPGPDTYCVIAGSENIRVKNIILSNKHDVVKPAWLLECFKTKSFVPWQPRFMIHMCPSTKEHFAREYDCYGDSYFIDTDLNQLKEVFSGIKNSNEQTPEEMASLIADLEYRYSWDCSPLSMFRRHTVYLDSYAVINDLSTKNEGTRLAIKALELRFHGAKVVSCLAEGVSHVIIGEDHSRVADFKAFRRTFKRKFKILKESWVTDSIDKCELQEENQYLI
Description: SEC.

The data set “SEC” deals with the molecule itself. Description: SEC. Background: SEC sorts molecules by how far they enter the pores of the column.
The data set “SEC-MALS” concerns the molecule itself. Description: SEC-MALS.

B1: XRCC4 residues 1-238, non-phosphorylated (domain or fragment, UniProt Q13426 1-238, looked up)
chain: MERKISRIHLVSEPSITHFLQVSWEKTLESGFVITLTDGHSAWTGTVSESEISQEADDMAMEKGKYVGELRKALLSGAGPADVYTFNFSKESCYFFFEKNLKDVSFRLGSFNLEKVENPAEVIRELICYCLDTIAENQAKNEHLQKENERLLRDWNDVQGRFEKCVSAKEALETDLYKRFILVLNEKKTKIRSLHNKLLNAAQEREKDIKQEGETAICSEMTADRDPVYDESTDEESE
For the molecule B1, the binding result (in data set [1]; in “SEC”) was “binds” each time.

B2: CK2-phosphorylated XRCC4 residues 1-238 (domain or fragment, UniProt Q13426 1-238, looked up)
chain: B1 chain
modifications: phosphoserine at 232, phosphothreonine at 233 (CK2alpha in vitro)
Turning to B2, the “stoichiometry N” value in the data set “SEC-MALS” was 2. Besides, the binding result in data set [1] is “binds”.

By stoichiometry N is commonly meant a count of units in the complex or per binding partner.
